Target: T1, H6-CtBP2 (UniProt P56545 1-445)
T1 construct: also called H6-tagged wt CtBP2; wt CtBP2; source: purified
Test: pull-down; GST fusion proteins charged on glutathione-agarose beads, incubated with purified H6-CtBP2 or H6-RR-CtBP2 (~0.1 μg) in 200 μl of 25 mM Tris-HCl pH 7.5, 0.25 M NaCl, 0.5% Triton X-100, 0.5 mM DTT for 1 h at 4°C; Western blot with the CtBP2 antibody
Details: both partners purified

B1: GST-ZEB101 (domain or fragment, UniProt P37275-1 680-780, looked up)
chain: PLKMTNSPVLPVGSTTNGSRSSTPSPSPLNLSSSRNTQGYLYTAEGAQEEPQVEPLDLSLPKQQGELLERSTITSVYQNSVYSVQEEPLNLSCAKKEPQKD
notes: ZEB (ZEB1), GenBank NM_030751, aa 680-780; transferred from pGFP-ZEB101 to a pGST vector at XhoI/EcoRI; also called wt ZEB101; source: induced with 1 mM IPTG; lysate loaded onto glutathione-agarose beads
B1: binds.
